In article PMC9723635:

How the values were obtained:
RBPMS-A WT [1] = assay: UV crosslinking; conditions: 4 uM protein, EMSA: 50 mM HEPES pH 7.2-7.9, 15 mM MgCl2, 25% glycerol, 5 mM DTT, 45 mM KCl, 5 ug tRNA, 20 fmol RNA, 25 min at 30 C, then 5 ug heparin 5 min at 30 C
[2] = target: truncated RBPMS-A T/E (amino acids 1-122, T113E and T118E), the sample used for NMR (UniProt Q93062); assay: SEC-MALS; 50 μl at ~2 mg/ml on Superdex 75 10/300 GL increase, 10 mM HEPES pH 6.8, 50 mM KCl, 0.5 ml/min; self-association (dimer)
[3] = target: recombinant RBPMS-A T/A (double mutant T113A and T118A) (UniProt Q93062); assay: AUC; sedimentation velocity, interference data, 40 000 rpm, 20°C, overnight; protein at 0.5 mg/ml in 20 mM HEPES, 500 mM KCl, 1 mM TCEP, pH 7.9; c(s) distributions by SEDFIT; self-association into dimers and higher-order oligomers
RBPMS-A WT [4] = assay: EMSA; conditions: apparent Kd, Hill fit; tRNA and heparin present; EMSA: 50 mM HEPES pH 7.2-7.9, 15 mM MgCl2, 25% glycerol, 5 mM DTT, 45 mM KCl, 5 ug tRNA, 20 fmol RNA, 25 min at 30 C, then 5 ug heparin 5 min at 30 C; 4% …
[5] = target: recombinant wild-type RBPMS-A (RNA Binding Protein with Multiple Splicing, canonical isoform A) (UniProt Q93062); assay: AUC; sedimentation velocity, interference data, 40 000 rpm, 20°C, overnight; protein at 0.5 mg/ml in 20 mM HEPES, 500 mM KCl, 1 mM TCEP, pH 7.9; c(s) distributions by SEDFIT; self-association into dimers and higher-order oligomers

Substance Tpm1 UV-crosslinking RNA has a binding signal (% (reference)) (RBPMS-A WT [1]; no nuclear extract) of 100 and a binding signal (% (reference)) (RBPMS-A WT [1]; with 20% HeLa nuclear extract) of 100.

“truncated RBPMS-A T/E (amino acids 1-122, T113E and T118E), the sample used for NMR (from UniProt Q93062 1-122) (domain or fragment)” was tested, and the stoichiometry N [2] was 2.

Work on “recombinant RBPMS-A T/A (double mutant T113A and T118A) (from UniProt Q93062 2-196) (natural protein)” yielded a stoichiometry N [3] of 2.

“Tpm1 exon 3 upstream intron EMSA RNA (three tandem CAC motifs)” showed a Kd (RBPMS-A WT [4]) of 213 nM.

In the case of “recombinant wild-type RBPMS-A (RNA Binding Protein with Multiple Splicing, canonical isoform A) (from UniProt Q93062 2-196) (natural protein)”, the stoichiometry N [5] is reported as 2.
